# doi:10.1101/2025.07.28.666932, “Mechanism-Guided Engineering of Fluorinase Unlocks Efficient Nucleophilic Biofluorination” (bioRxiv, 2025)
# Where a chain is given by its changes, count along the chain named. Names may count otherwise. “And” between values parts separate entries of the source, which are not always exact repeats. Equal values may be shown once.
# B1: fluorinase FlA1 from Streptomyces sp. strain MA37 (5'-fluoro-5'-deoxyadenosine synthase), wild type (enzyme, UniProt W0W999 1-299, looked up)
# chain: MAANGSQRPIIAFMSDLGTTDDSVAQCKGLMHSICPGVTVVDVCHSMTPWDVEEGARYIVDLPRFFPEGTVFATTTYPATGTTTRSVAVRIRQAAKGGARGQWAGSGDGFERADGSYIYIAPNNGLLTTVLEEHGYIEAYEVTSTKVIPANPEPTFYSREMVAIPSAHLAAGFPLAEVGRRLDDSEIVRFHRPAVEISGEALSGVVTAIDHPFGNIWTNIHRTDLEKAGIGQGKHLKIILDDVLPFEAPLTPTFADAGAIGNIAFYLNSRGYLSLARNAASLAYPYNLKAGLKVRVEAR
# notes: fluorinase FlA1 (5'-fluoro-5'-deoxyadenosine synthase), Streptomyces sp. strain MA37; Exists as trimers, hexamers and higher oligomers; also called wild-type FlA1; wild-type fluorinase; source: overexpressed in Escherichia coli, purified
# B2: fluorinase FlA1 variant C44T (enzyme, Streptomyces sp. strain MA37, UniProt W0W999 1-299, looked up)
# chain: B1 chain with C44T
# notes: fluorinase FlA1, Streptomyces sp. strain MA37, with C44T; everywhere else C44T; also called FlA1+C44T
# B3: fluorinase FlA1 variant A279R (enzyme, Streptomyces sp. strain MA37, UniProt W0W999 1-299, looked up)
# chain: B1 chain with A279R
# notes: fluorinase FlA1, Streptomyces sp. strain MA37, wild type with A279R
# B4: fluorinase FlA1 variant W50F (enzyme, Streptomyces sp. strain MA37, UniProt W0W999 1-299, looked up)
# chain: B1 chain with W50F
# notes: fluorinase FlA1, Streptomyces sp. strain MA37, wild type with W50F
# B5: fluorinase FlA1 double mutant W50F+A279R (enzyme, Streptomyces sp. strain MA37, UniProt W0W999 1-299, looked up)
# chain: B1 chain with W50F, A279R
# notes: fluorinase FlA1, Streptomyces sp. strain MA37, wild type with W50F and A279R; also called A279R+W50F; FlA1+A279R+W50F
# Tests used:
# [1] = biological target: the molecule itself; assay: mass photometry; free enzyme, 500 nM, 30 mM HEPES buffer, pH 7.5, 20 °C; histograms fitted to the sum of five Gaussian distributions
# [2] = biological target: the molecule itself; assay: not stated; oligomeric state under all conditions of the kinetic experiments (Fig. S8); method not given
# [3] = biological target: the molecule itself; assay: mass photometry; in the presence of substrates, under the reaction conditions; fitted globally with the kinetic data (association constants monomer to trimer K_(a,3E), hexamer K_(a,6E), higher oligomers K_(a,agg))
protein,measurement,setting,value
B1,stoichiometry N,[1],3 and 6
B2,stoichiometry N,[2],6
B3,stoichiometry N,[3],6
B4,binding result,[3],binds
B5,stoichiometry N,[3],6
